Laboratory results taken from publication PMC11948038 (2025).

Biological target: cytochrome c (UniProt P99999 2-105)
Test: NMR

Sequence of cytochrome c (P99999 2-105): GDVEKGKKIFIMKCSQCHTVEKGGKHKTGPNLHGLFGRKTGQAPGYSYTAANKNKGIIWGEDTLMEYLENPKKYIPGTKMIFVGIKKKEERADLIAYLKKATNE

B1: full-length ANP32A (natural protein)
chain: MEMGRRIHLELRNRTPSDVKELVLDNSRSNEGKLEGLTDEFEELEFLSTINVGLTSIANLPKLNKLKKLELSDNRVSGGLEVLAEKCPNLTHLNLSGNKIKDLSTIEPLKKLENLKSLDLFNCEVTNLNDYRENVFKLLPQLTYLDGYDRDDKEAPDSDAEGYVEGLDDEEEDEDEEEYDEDAQVVEDEEDEDEEEEGEEEDVSGEEEEDEEGYNDGEVDDEEDEEELGEEERGQKRKREPEDEGEDDD
Binder B1 has a Kd of 379 µM.
